2 molecules from patent publication US20250282881A1 (SHANGHAI EPIMAB BIOTHERAPEUTICS, published 2025) can be followed below.

For orientation: EC50 means the concentration needed to bring the measured effect to its halfway point. Read a low EC50 as higher potency in that assay. What is called koff is the rate constant with which the complex falls apart.

The target of assay [1] is T1, recombinant human OX40/His fusion protein (Novoprotein, CB17) (human, UniProt P43489 29-216).
T1 construct: Bought protein
T1 sequence: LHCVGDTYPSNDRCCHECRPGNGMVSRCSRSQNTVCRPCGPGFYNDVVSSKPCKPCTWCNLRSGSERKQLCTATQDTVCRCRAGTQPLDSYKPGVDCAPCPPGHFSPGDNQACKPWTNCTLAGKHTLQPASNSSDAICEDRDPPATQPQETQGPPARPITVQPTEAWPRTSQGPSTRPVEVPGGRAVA
The experiment in a line: BLI (Octet RED96), antibody on AHC sensor, OX40/His as analyte, test group 3 (the reference itself). Here is the method: (§1) All 17 antibodies in Table 4 were expressed by transient transfection of HEK293 cell, purified by Protein A chromatography, and assayed for and ranked by dissociation rate constant (koff). Briefly, antibodies binding affinities and kinetics were characterized by Octet® RED96 biolayer interferometry (Pall FortéBio LLC). Antibodies were captured by Anti-hIgG Fc Capture (AHC) Biosensors (Pall) at a concentration of 100 nM for 120 seconds. After that, sensors were dipped into running buffer (1× pH 7.2 PBS, 0.05% Tween 20, 0.1% BSA) for 60 seconds to check the baseline, then dipped into recombinant human OX40/His fusion protein (Novoprotein, CB17) at assigned concentration for 200 seconds to measure binding, followed by dipped into running buffer for 600 seconds for dissociation. The assay was conducted in four test groups (as listed in Table 5) all containing the EM1007-044c chimeric antibody as the basis for normalization. The association and dissociation curves were fitted to a 1:1 Langmuir binding model using ForteBio Data Analysis software (Pall) to obtain the off-rate constants as shown in Table 5 below. The off-rate of each antibody was compared to that of the EM1007-mAb044c chimeric antibody in the same test group obtained in parallel to produce the corresponding off-rate ratio, serving as a normalized index. […]
(BLI is a label-free optical method that tracks binding on a fibre tip over time.)

The target in assay [2] is T2, cyno OX40 on cells (CHO-K1-cOX40) (cyno).
T2 construct: whole, on cells; also called Cyno OX40 on the cell surface
The experiment in a line: FACS on CHO-K1-cOX40 cells. The protocol: (§2) The purified chimeric antibody was designated EM1007-44c. Binding activity to human or Cyno OX40 on the cell surface was assessed by FACS. Briefly, 5×10⁵ cells were seeded into each well of a 96-well plate (Corning, #3799). Cells were centrifuged at 400 g for 5 minutes and supernatants were discarded. For each well, 100 μl of 3× serial dilution of antibody starting from 100 nM was then added and mixed with the cells. After 60 minutes of 4° C. incubation, plates were washed to remove excess antibody. […] After another round of centrifugation and washing, cells were resuspended in FACS buffer for reading on a CytoFLEX Flow Cytometer (Beckman Coulter). Median Fluorescence Intensity (MFI) readouts were plotted against antibody concentration and analyzed with GraphPad Prism 8.0. The ability of OX40 to activate downstream signaling was detected in a Jurkat-OX40-NF-κB luciferase assay. Briefly, high binding plates (Corning, #3361) were coated with 3× serial dilution of EM1007-44c starting from 100 nM at 4° C. overnight, washed, then seeded with 1×10⁵ cells per well of OX40-NF-κB reporter and incubate at 37° C. for 6 hours. At the end of incubation, ONE-Glo™ luminescence assay kit (Promega, Cat. #E6130) reagents were prepared and added according to the manufacturer's instructions. Plates were read for luminescence signals on Varioskan™ LUX microplate reader (ThermoFisher Scientific).

For assay [3], the target named is T1, recombinant human OX40/His fusion …. In words: BLI (Octet RED96), antibody on AHC sensor, OX40/His as analyte, test group 2. Here is the method: (§3) All 17 antibodies in Table 4 were expressed by transient transfection of HEK293 cell, purified by Protein A chromatography, and assayed for and ranked by dissociation rate constant (koff). Briefly, antibodies binding affinities and kinetics were characterized by Octet® RED96 biolayer interferometry (Pall FortéBio LLC). Antibodies were captured by Anti-hIgG Fc Capture (AHC) Biosensors (Pall) at a concentration of 100 nM for 120 seconds. After that, sensors were dipped into running buffer (1× pH 7.2 PBS, 0.05% Tween 20, 0.1% BSA) for 60 seconds to check the baseline, then dipped into recombinant human OX40/His fusion protein (Novoprotein, CB17) at assigned concentration for 200 seconds to measure binding, followed by dipped into running buffer for 600 seconds for dissociation. The assay was conducted in four test groups (as listed in Table 5) all containing the EM1007-044c chimeric antibody as the basis for normalization. The association and dissociation curves were fitted to a 1:1 Langmuir binding model using ForteBio Data Analysis software (Pall) to obtain the off-rate constants as shown in Table 5 below. The off-rate of each antibody was compared to that of the EM1007-mAb044c chimeric antibody in the same test group obtained in parallel to produce the corresponding off-rate ratio, serving as a normalized index. […]

For assay [4] the target is unchanged. The experiment in a line: BLI (Octet RED96), antibody on AHC sensor, OX40/His as analyte, test group 2 (the reference itself). The protocol: as §1
For assay [5], the target named is T3, human OX40 on cells (CHO-K1-hOX40, CHO-OX40, Jurkat-OX40 reporter cells) (human, UniProt P43489 29-277).
T3 sequence: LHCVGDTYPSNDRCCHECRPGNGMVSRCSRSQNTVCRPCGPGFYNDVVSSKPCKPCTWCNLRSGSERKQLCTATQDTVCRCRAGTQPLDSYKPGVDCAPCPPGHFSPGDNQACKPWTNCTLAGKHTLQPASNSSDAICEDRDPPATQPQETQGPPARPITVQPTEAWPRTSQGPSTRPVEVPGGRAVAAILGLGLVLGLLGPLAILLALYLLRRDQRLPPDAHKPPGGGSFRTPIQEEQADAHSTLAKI
In words: cell-based or functional assay.

The target of assay [6] is T1, recombinant human OX40/His fusion …. In words: BLI (Octet RED96), antibody on AHC sensor, OX40/His as analyte, test group 4 (the reference itself). Here is the method:
as §1

Assay [7] has the same target. In words: BLI (Octet RED96), antibody on AHC sensor, OX40/His as analyte, test group 1 (the reference itself). The protocol:
as §1

The target of assay [8] is T3, human OX40 on cells (CHO-K1-hOX40, …). In words: FACS on CHO-K1-hOX40 cells. Here is the method:
as §2

The target in assay [9] is T1, recombinant human OX40/His fusion …. In words: BLI (Octet RED96), antibody on AHC sensor, OX40/His as analyte, test group 4. The protocol: as §3
The target is the same in assay [10]. In words: BLI (Octet RED96), antibody on AHC sensor, OX40/His as analyte, test group 1. Here is the method: as §3
The target is the same in assay [11]. The experiment in a line: BLI (Octet RED96), antibody on AHC sensor, OX40/His as analyte, test group 3. The protocol:
as §3

For assay [12], the target named is T4, recombinant human PD-L1/His fusion protein (Novoprotein, Cat. No. C315) (human, UniProt Q9NZQ7 19-239).
T4 construct: also called recombinant human PD-L1-his protein
The experiment in a line: BLI (Octet RED96), antibody on AHC sensor, PD-L1/His as analyte, test group 2 (the reference itself). An excerpt:
(§4) Based on titer and purity, 10 of the 50 humanized antibodies were selected and further assayed in two groups for dissociation rate constant (koff) as shown in Table 7. Chimeric antibody EM0005-86c having VH/VL sequences identical to EM0005-mAb86 (as provided in Table 6) was used as a positive control in each group and served as a basis for normalization. Briefly, antibodies were characterized for affinities and binding kinetics by Octet® RED96 biolayer interferometry (Pall FortéBio LLC). Anti-hIgG Fc Capture (AHC) Biosensors (Pall) with antibody captured at a concentration of 100 nM for 120 seconds were dipped into running buffer (1× pH 7.2 PBS, 0.05% Tween 20, 0.1% BSA) for 60 seconds to check the baseline, then dipped into a single concentration of recombinant human PD-L1/His fusion protein (Novoprotein, Cat. No. C315) to measure binding for 200 seconds, followed by dipped into running buffer to measure dissociation for 600 seconds. The association and dissociation curves were fitted to a 1:1 Langmuir binding model using FortéBio Data Analysis software (Pall). The off-rate ratios shown in Table 7 were calculated by off-rate of a humanized antibody to that of EM0005-86c in the same test group. The off-rate ratio serves as a normalized index, so that the humanized antibodies can be compared to one another across test groups. […]

Assay [13] concerns the target T4, recombinant human PD-L1/His fusion …. The experiment in a line: BLI (Octet RED96), antibody on AHC sensor, PD-L1/His as analyte, test group 2.
Excerpt: as §4

The target is the same in assay [14]. The experiment in a line: BLI (Octet RED96), antibody on AHC sensor, PD-L1/His as analyte, test group 1 (the reference itself).
Excerpt: as §4

Assay [15] has the same target. In words: BLI (Octet RED96), antibody on AHC sensor, PD-L1/His as analyte, test group 1. An excerpt:
Based on titer and purity, 10 of the 50 humanized antibodies were selected and further assayed in two groups for dissociation rate constant (koff) as shown in Table 7. Chimeric antibody EM0005-86c having VH/VL sequences identical to EM0005-mAb86 (as provided in Table 6) was used as a positive control in each group and served as a basis for normalization. Briefly, antibodies were characterized for affinities and binding kinetics by Octet® RED96 biolayer interferometry (Pall FortéBio LLC). Anti-hIgG Fc Capture (AHC) Biosensors (Pall) with antibody captured at a concentration of 100 nM for 120 seconds were dipped into running buffer (1× pH 7.2 PBS, 0.05% Tween 20, 0.1% BSA) for 60 seconds to check the baseline, then dipped into a single concentration of recombinant human PD-L1/His fusion protein (Novoprotein, Cat. No. C315) to measure binding for 200 seconds, followed by dipped into running buffer to measure dissociation for 600 seconds. The association and dissociation curves were fitted to a 1:1 Langmuir binding model using FortéBio Data Analysis software (Pall). The off-rate ratios shown in Table 7 were calculated by off-rate of a humanized antibody to that of EM0005-86c in the same test group. The off-rate ratio serves as a normalized index, so that the humanized antibodies can be compared to one another across test groups. The lower off-rate ratio indicates higher affinity of an antibody for human PD-L1. HuEM0005-86-21 was selected for further investigation based on the purity and off-rate data.

T4 sequence (Q9NZQ7 19-239 limits assumed): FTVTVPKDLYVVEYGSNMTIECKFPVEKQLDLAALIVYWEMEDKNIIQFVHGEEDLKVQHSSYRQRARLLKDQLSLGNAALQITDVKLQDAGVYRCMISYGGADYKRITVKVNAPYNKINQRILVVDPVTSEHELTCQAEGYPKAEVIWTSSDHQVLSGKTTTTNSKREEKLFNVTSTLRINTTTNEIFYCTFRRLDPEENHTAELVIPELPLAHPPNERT

B1: EM1007-44c (antibody, human IgG1, V domains shown)
VH: QVQLQQSGPELVKPGASVTISCKASGHAFSSSWMNWVKQRPGKGLEWIGRIYPGDEITNYNGKFKDKATLTADKSSSTAYMQLSSLTFEDSAVYFCARDLLMPYWGQGTLVTVSA
VL: DIVMTQTAFSNPVTLGTSASISCRSSKSLLYSNGITYLYWYLQKPGQSPHLLIYQMSNLAPGVPDRFSSSGSGTDFTLRISRVEAEDVGIYYCAQNLELPFTFGSGTKLEIK
notes: also called EM1007-mAb044c; EM1007-044c
Regarding B1, the “Normalized Index (off-rate ratio to EM1007-mAb044c)” value in assay [1], in assay [4], in assay [6] and in [7] was 100% each time. Further, the EC50 in [2] amounted to 2.11 nM; in assay [8], 2.6 nM. The koff in assay [3] stood at 0.000318 s⁻¹; in [9], 0.000279 s⁻¹; in [10] it was 0.000336 s⁻¹; in [11], 0.000305 s⁻¹. The “OX40-Jurkat-NF-κB-Reporter, EC50” value in [5] was determined as 0.43 nM. For the same molecule, the “OX40-Jurkat-NF-κB-Reporter, Maximal fold change” value in assay [5] is 1.52 fold.

B2: EM0005-86c (antibody, V domains shown)
VH: QVQLQQSGAELVRPGSSVKMSCKTSGYTFTTYGINWVKQRPGQGLEWIGYIYIGNGYTEYNEKFKGKATLTSDPSSRTAYMQLSSLTSEDSAIYFCARDLMVIAPKTMDYWGQGTSVTVSS
VL: DIQMNQSHKFMSTSVGDRVSITCKASQDVGTAVAWYQQKPGQSPKLLIYWASTRHTGVPDRFTGGGSGTDFTLTISNVQSEDLADYFCQQYSSYPYTFGGGTKLEMK
notes: Chimeric anti-PD-L1; captured on anti-human IgG Fc sensors
Regarding B2, the “Off-Rate Ratio to EM0005-86c” value in [12] and in [14] was 100% throughout. The koff was determined as 0.000146 s⁻¹ in [13] and 0.000272 s⁻¹ in assay [15].
